Measured values reported in patent publication US20090162945.

B1: Recombinant full-length amino-terminally hexahistidine-tagged human GASC1 (protein)
chain: MEVAEVESPLNPSCKIMTFRPSMEEFREFNKYLAYMESKGAHRAGLAKVIPPKEWKPRQCYDDIDNLLIPAPIQQMVTGQSGLFTQYNIQKKAMTVKEFRQLANSGKYCTPRYLDYEDLERKYWKNLTFVAPIYGADINGSIYDEGVDEWNIARINTVLDVVEEECGISIEGVNTPYLYFGMWKTTFAWHTEDMDLYSINYLHFGEPKSWYAIPPEHGKRLERLAQGFFPSSSQGCDAFLRHKMTLISPSVLKKYGIPFDKITQEAGEFMITFPYGYHAGFNHGFNCAESTNFATVRWIDYGKVAKLCTCRKDMVKISMDIFVRKFQPDRYQLWKQGKDIYTIDHTKPTPASTPEVKAWLQRRRKVRKASRSFQCARSTSKRPKADEEEEVSDEVDGAEVPNPDSVTDDLKVSEKSEAAVKLRNTEASSEEESSASRMQVEQNLSDHIKLSGNSCLSTSVTEDIKTEDDKAYAYRSVPSISSEADDSIPLSTGYEKPEKSDPSELSWPKSPESCSSVAESNGVLTEGEESDVESHGNGLEPGEIPAVPSGERNSFKVPSIAEGENKTSKSWRHPLSRPPARSPMTLVKQQAPSDEELPEVLSIEEEVEETESWAKPLIHLWQTKSPNFAAEQEYNATVARMKPHCAICTLLMPYHKPDSSNEENDARWETKLDEVVTSEGKTKPLIPEMCFIYSEENIEYSPPNAFLEEDGTSLLISCAKCCVRVHASCYGIPSHEICDGWLCARCKRNAWTAECCLCNLRGGALKQTKNNRWAHVMCAVAVPEVRFTNVPERTQIDVGRIPLQRLKLKCIFCRHRVKRVSGACIQCSYGRCPASFHVTCAHAAGVLMEPDDWPYVVNITCFRHKVNPNVKSKACEKVISVGQTVITKHRNTRYYSCRVMAVTSQTFYEVMFDDGSFSRDTFPEDIVSRDCLKLGPPAEGEVVQVKWPDGKLYGAKYFGSNIAHMYQVEFEDGSQIAMKREDIYTLDEELPKRVKARFSTASDMRFEDTFYGADIIQGERKRQRVLSSRFKNEYVADPVYRTFLKSSFQKKCQKRQ
B2: Recombinant full-length histidine-tagged human JMJD2a (protein)
chain: MASESETLNPSARIMTFYPTMEEFRNFSRYIAYIESQGAHRAGLAKVVPPKEWKPRASYDDIDDLVIPAPIQQLVTGQSGLFTQYNIQKKAMTVREFRKIANSDKYCTPRYSEFEELERKYWKNLTFNPPIYGADVNGTLYEKHVDEWNIGRLRTILDLVEKESGITIEGVNTPYLYFGMWKTSFAWHTEDMDLYSINYLHFGEPKSWYSVPPEHGKRLERLAKGFFPGSAQSCEAFLRHKMTLISPLMLKKYGIPFDKVTQEAGEFMITFPYGYHAGFNHGFNCAESTNFATRRWIEYGKQAVLCSCRKDMVKISMDVFVRKFQPERYKLWKAGKDNTVIDHTLPTPEAAEFLKESELPPRAGNEEECPEEDMEGVEDGEEGDLKTSLAKHRIGTKRHRVCLEIPQEVSQSELFPKEDLSSEQYEMTECPAALAPVRPTHSSVRQVEDGLTFPDYSDSTEVKFEELKNVKLEEEDEEEEQEAAALDLSVNPASVGGRLVFSGSKKKSSSSLGSGSSRDSISSDSETSEPLSCRAQGQTGVLTVHSYAKGDGRVTVGEPCTRKKGSAARSFSERELAEVADEYMFSLEENKKSKGRRQPLSKLPRHHPLVLQECVSDDETSEQLTPEEEAEETEAWAKPLSQLWQNRPPNFEAEKEFNETMAQQAPHCAVCMIFQTYHQVEFGGFNQNCGNASDLAPQKQRTKPLIPEMCFTSTGCSTDINLSTPYLEEDGTSILVSCKKCSVRVHASCYGVPPAKASEDWMCSRCSANALEEDCCLCSLRGGALQRANDDRWVHVSCAVAILEARFVNIAERSPVDVSKIPLPRFKLKCIFCKKRRKRTAGCCVQCSHGRCPTAFHVSCAQAAGVMMQPDDWPFVVFITCFRHKIPNLERAKGALQSITAGQKVISKHKNGRFYQCEVVRLTTETFYEVNFDDGSFSDNLYPEDIVSQDCLQFGPPAEGEVVQVRWTDGQVYGAKFVASHPIQMYQVEFEDGSQLVVKRDDVYTLDEELPKRVKSRLSVASDMRFNEIFTEKEVKQEKKRQRVINSRYREDYIEPALYRAIME

What was measured:
[1] = biological target: Synthetic 43-mer histone H3 (1-40) peptide tri-methylated at lysine 27, …-Tyr-Cys-(Ttds)-Lys-biotin
[2] = biological target: Synthetic 43-mer histone H3 (1-40) peptide tri-methylated at lysine 9, …(me3)…-Tyr-Cys-(Ttds)-Lys-biotin
Chain of Synthetic 43-mer histone H3 (1-40) peptide tri-methylated at lysine 9, …(me3)…-Tyr-Cys-(Ttds)-Lys-biotin (chain, as listed by the source): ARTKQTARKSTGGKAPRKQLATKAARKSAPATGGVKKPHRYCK

Chain of Synthetic 43-mer histone H3 (1-40) peptide tri-methylated at lysine 27, …-Tyr-Cys-(Ttds)-Lys-biotin (chain, as listed by the source): as above

| Protein | demethylation assay, immunoblotting of the methylation mark [1] | demethylation of H3K9me3 peptide, mass spectrometry [2] | formaldehyde release (demethylation-FDH-coupled assay) [2] | in vitro demethylation of synthetic peptide, western blotting [2] | demethylation of synthetic H3K9 peptides, western blotting [2] |
| --- | --- | --- | --- | --- | --- |
| B1 | tri-methylated H3K27 and tri-methylated H4K20 appeared to be unaffected by GASC1 treatment | the majority of H3K9me3 peptide (approximately 80%) was converted to di- and mono-methylated H3-K9 after incubation of with GASC1 | recombinant His-tagged GASC1 released formaldehyde | Following 30 minutes incubation of pure tri-methylated H3K9 with GASC1 almost all tri-methyl H3K9 was converted to di- and mono-methyl H3K9 | – |
| B2 | – | – | – | – | GASC1 and its homolog JMJD2A appeared to have a comparable ability to demethylate synthetic H3K9 substrates |
